Test results taken from article PMC2871011.

Biological target: low-molecular-weight fibrinogen fraction I-9 isolated from plasma (human) (UniProt P02671)
Assay: co-purification

latent TGF-β1 (TGF-β1 with its latency-associated protein) (from UniProt P01137 30-278) (complex)
fold less latent TGF-β than in fraction I-2: 8 fold
